Laboratory results reported in patent US20250368745A1 (published 2025).
Positions count from the first letter of the chain named. “And” between values parts separate entries of the source, which are not always exact repeats. Equal entries are not always repeated. Where two headings read alike, the source gives them in different places.

Experiments:
human IL-18BP [1] = biological target: T1, human IL-18BP (human, UniProt O95998 31-194); assay: BLI, apparent KD
T1 construct: UniProt printed as 095998; also called hIL-18BP
T1 sequence: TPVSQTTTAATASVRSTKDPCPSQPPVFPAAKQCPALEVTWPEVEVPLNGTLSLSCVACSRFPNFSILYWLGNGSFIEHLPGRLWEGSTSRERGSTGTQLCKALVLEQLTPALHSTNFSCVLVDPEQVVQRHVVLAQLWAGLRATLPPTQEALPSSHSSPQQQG

human IL-18BP [2] = biological target: T1, human IL-18BP; assay: BLI, apparent KD; remark: listed apart in the source

B1: SA301a HC-S56R (antibody, name in Kabat numbering, V domains shown)
VH: QVQLQESGPGLVKPSQTLSLTCTVSGYSITSDYNSHWIRQPPGKGLEWIGYIHYSGRTNYNPSLKSRVTISRDTSKNQFSLKLSSVTAADTAVYYCARNYGSIYVNYFDYWGQGTLVTVSS
VL: EIVLTQSPATLSLSPGERATLSCSASSSVSYMYWYQQKPGQAPRPLIYRTSNLASGIPARFSGSGSGTDFTLTISSLEPEDFAVYYCQQYHSYPTFGGGTKVEIK
notes: IgG1 kappa
With B1 the Kd (human IL-18BP [1]) was 0.17 nM.

B2: SA301a HC-S56T (antibody, name in Kabat numbering, V domains shown)
VH: B1 VH with R57T
VL: B1 VL
notes: IgG1 kappa
B2 showed a Kd (human IL-18BP [1]) of 0.45 nM.

B3: SA301a HC-S56V (antibody, name in Kabat numbering, V domains shown)
VH: B1 VH with R57V
VL: B1 VL
notes: IgG1 kappa
Binder B3 has a Kd (human IL-18BP [1]) of 0.25 nM.

B4: SA301a HC-S56Y (antibody, name in Kabat numbering, V domains shown)
VH: B1 VH with R57Y
VL: B1 VL
notes: IgG1 kappa
With B4 the Kd (human IL-18BP [1]) was 1 nM.

B5: SA301a HC-T57A (antibody, name in Kabat numbering, V domains shown)
VH: B1 VH with R57S, T58A
VL: B1 VL
notes: IgG1 kappa
For B5, the Kd (human IL-18BP [1]) was 0.9 nM.

B6: SA301a HC-T57D (antibody, name in Kabat numbering, V domains shown)
VH: B1 VH with R57S, T58D
VL: B1 VL
notes: IgG1 kappa
With B6 the Kd (human IL-18BP [1]) was 1.73 nM.

B7: SA301a HC-T57E (antibody, name in Kabat numbering, V domains shown)
VH: B1 VH with R57S, T58E
VL: B1 VL
notes: IgG1 kappa
B7 showed a Kd (human IL-18BP [1]) of 0.42 nM.

B8: SA301a HC-T57F (antibody, name in Kabat numbering, V domains shown)
VH: B1 VH with R57S, T58F
VL: B1 VL
notes: IgG1 kappa
B8 was tested, and the Kd (human IL-18BP [1]) was 1.22 nM.

B9: SA301a HC-T57G (antibody, name in Kabat numbering, V domains shown)
VH: B1 VH with R57S, T58G
VL: B1 VL
notes: IgG1 kappa
B9 was tested, and the Kd (human IL-18BP [1]) was 0.11 nM.

B10: SA301a HC-T57I (antibody, name in Kabat numbering, V domains shown)
VH: B1 VH with R57S, T58I
VL: B1 VL
notes: IgG1 kappa
Binder B10 has a Kd (human IL-18BP [1]) of 0.28 nM.

B11: SA301a HC-T57K (antibody, name in Kabat numbering, V domains shown)
VH: B1 VH with R57S, T58K
VL: B1 VL
notes: IgG1 kappa
Work on B11 yielded a Kd (human IL-18BP [1]) of 0.52 nM.

B12: SA301a HC-T57L (antibody, name in Kabat numbering, V domains shown)
VH: B1 VH with R57S, T58L
VL: B1 VL
notes: IgG1 kappa
B12 was tested, and the Kd (human IL-18BP [1]) was 0.32 nM.

B13: SA301a HC-T57M (antibody, name in Kabat numbering, V domains shown)
VH: B1 VH with R57S, T58M
VL: B1 VL
notes: IgG1 kappa
For B13, the Kd (human IL-18BP [1]) was 0.18 nM.

B14: SA301a HC-T57N (antibody, name in Kabat numbering, V domains shown)
VH: B1 VH with R57S, T58N
VL: B1 VL
notes: IgG1 kappa
Binder B14 has a Kd (human IL-18BP [1]) of 0.86 nM.

B15: SA301a HC-T57Q (antibody, name in Kabat numbering, V domains shown)
VH: B1 VH with R57S, T58Q
VL: B1 VL
notes: IgG1 kappa
B15 gave a Kd (human IL-18BP [1]) of 0.91 nM.

B16: SA301a HC-T57R (antibody, name in Kabat numbering, V domains shown)
VH: B1 VH with R57S, T58R
VL: B1 VL
notes: IgG1 kappa
B16 showed a Kd (human IL-18BP [1]) of 0.67 nM.

B17: SA301a HC-T57S (antibody, name in Kabat numbering, V domains shown)
VH: B1 VH with R57S, T58S
VL: B1 VL
notes: IgG1 kappa
In the case of B17, the Kd (human IL-18BP [1]) is reported as 0.37 nM.

B18: SA301a HC-T57V (antibody, name in Kabat numbering, V domains shown)
VH: B1 VH with R57S, T58V
VL: B1 VL
notes: IgG1 kappa
B18 was tested, and the Kd (human IL-18BP [1]) was 0.36 nM.

B19: SA301a HC-T57Y (antibody, name in Kabat numbering, V domains shown)
VH: B1 VH with R57S, T58Y
VL: B1 VL
notes: IgG1 kappa
Binder B19 has a Kd (human IL-18BP [1]) of 1.74 nM.

B20: SA301a HC-Y59A (antibody, name in Kabat numbering, V domains shown)
VH: B1 VH with R57S, Y60A
VL: B1 VL
notes: IgG1 kappa
B20 was tested, and the Kd (human IL-18BP [1]) was 0.35 nM.

B21: SA301a HC-Y59D (antibody, name in Kabat numbering, V domains shown)
VH: B1 VH with R57S, Y60D
VL: B1 VL
notes: IgG1 kappa
In the case of B21, the Kd (human IL-18BP [1]) is reported as 1.25 nM and 0.63 nM.

B22: SA301a HC-Y59E (antibody, name in Kabat numbering, V domains shown)
VH: B1 VH with R57S, Y60E
VL: B1 VL
notes: IgG1 kappa
Work on B22 yielded a Kd (human IL-18BP [1]) of 0.18 nM.

B23: SA301a HC-Y59F (antibody, name in Kabat numbering, V domains shown)
VH: B1 VH with R57S, Y60F
VL: B1 VL
notes: IgG1 kappa
Work on B23 yielded a Kd (human IL-18BP [1]) of 0.87 nM.

B24: SA301a HC-Y59G (antibody, name in Kabat numbering, V domains shown)
VH: B1 VH with R57S, Y60G
VL: B1 VL
notes: IgG1 kappa
B24 gave a Kd (human IL-18BP [1]) of 1.59 nM.

B25: SA301a HC-Y59K (antibody, name in Kabat numbering, V domains shown)
VH: B1 VH with R57S, Y60K
VL: B1 VL
notes: IgG1 kappa
B25 was tested, and the Kd (human IL-18BP [1]) was 0.12 nM.

B26: SA301a HC-Y59L (antibody, name in Kabat numbering, V domains shown)
VH: B1 VH with R57S, Y60L
VL: B1 VL
notes: IgG1 kappa
Binder B26 has a Kd (human IL-18BP [1]) of 0.42 nM.

B27: SA301a HC-Y59N (antibody, name in Kabat numbering, V domains shown)
VH: B1 VH with R57S, Y60N
VL: B1 VL
notes: IgG1 kappa
Binder B27 has a Kd (human IL-18BP [1]) of 0.79 nM.

B28: SA301a HC-Y59P (antibody, name in Kabat numbering, V domains shown)
VH: B1 VH with R57S, Y60P
VL: B1 VL
notes: IgG1 kappa
B28 gave a Kd (human IL-18BP [1]) of 0.08 nM.

B29: SA301a HC-Y59Q (antibody, name in Kabat numbering, V domains shown)
VH: B1 VH with R57S, Y60Q
VL: B1 VL
notes: IgG1 kappa
B29 showed a Kd (human IL-18BP [1]) of 0.35 nM.

B30: SA301a HC-Y59R (antibody, name in Kabat numbering, V domains shown)
VH: B1 VH with R57S, Y60R
VL: B1 VL
notes: IgG1 kappa
B30 was tested, and the Kd (human IL-18BP [1]) was 0.42 nM.

B31: SA301a HC-Y59S (antibody, name in Kabat numbering, V domains shown)
VH: B1 VH with R57S, Y60S
VL: B1 VL
notes: IgG1 kappa
Work on B31 yielded a Kd (human IL-18BP [1]) of 1.57 nM.

B32: SA301a HC-Y59T (antibody, name in Kabat numbering, V domains shown)
VH: B1 VH with R57S, Y60T
VL: B1 VL
notes: IgG1 kappa
In the case of B32, the Kd (human IL-18BP [1]) is reported as 0.14 nM.

B33: SA301a HC-Y59V (antibody, name in Kabat numbering, V domains shown)
VH: B1 VH with R57S, Y60V
VL: B1 VL
notes: IgG1 kappa
Binder B33 has a Kd (human IL-18BP [1]) of 0.38 nM.

B34: SA302a HC-D33E (antibody, V domains shown)
VH: B1 VH with D32E, S35A, R57S
VL: B1 VL
notes: IgG1 kappa
B34 gave a Kd (human IL-18BP [2]) of 1.76 nM.

B35: SA302a HC-D33G (antibody, V domains shown)
VH: B1 VH with D32G, S35A, R57S
VL: B1 VL
notes: IgG1 kappa
B35 was tested, and the Kd (human IL-18BP [2]) was 3.95 nM.
